From patent US20210379195A1, “METHODS FOR ALLOGENEIC HEMATOPOIETIC STEM CELL TRANSPLANTATION” (Magenta Therapeutics, Inc., priority 2018, published 2021)
Substitutions are numbered along the chain they refer to.

B1: Ab61: anti-CD117 antibody, VH SEQ ID NO: 69, VL SEQ ID NO: 70 (antibody, V domains shown)
VH: EVQLLESGGGLVQPGGSLRLSCAASGFTFSSYVMIWVRQAPGKGLEWVSSISGDSVTTYYADSVKGRFTISRDNSKNTLYLQMNSLRAEDTAVYYCAKGPPTYHTNYYYMDVWGKGTTVTVSS
VL: DIQMTQSPSSVSASVGDRVTITCRASQGISSWLAWYQQKPGKAPKLLIYAASSLQSGVPSRFSGSGSGTDFTLTISSLQPEDFATYYCQQTNSFPYTFGGGTKVEIK
B2: Ab249: human anti-CD117 antibody derived from CK6, VH SEQ ID NO: 238, VL SEQ ID NO: 242 (antibody, V domains shown)
VH: EVQLVQSGAEVKKPGESLKISCKGSGYRFTTSWIGWVRQMPGKGLEWMGIIYPGDSDTRYSPSFQGQVTISADKSISTAYLQWSSLKASDTAMYYCARHGLGYNGYEGAFDIWGQGTLVTVSS
VL: DIQMTQSPSSLSASVGDRVTITCRASQGIGSALAWYQQKPGKAPKLLIYDASNLETGVPSRFSGSGSGTDFTLTISSLQPEDFATYYCQQLNGYPLTFGQGTRLEIK
B3: Ab54: anti-CD117 antibody, VH SEQ ID NO: 29, VL SEQ ID NO: 30 (antibody, V domains shown)
VH: QVQLVQSGAEVKKPGSSVKVSCKASGGTFSSYAISWVRQAPGQGLEWMGGIIPIFGTANYAQKFQGRVTITADESTSTAYMELSSLRSEDTAVYYCARGGLDTDEFDLWGRGTLVTVSS
VL: DIQMTQSPSSLSASVGDRVTITCRASQSINSYLNWYQQKPGKAPKLLIYAASSLQSGVPSRFSGSGSGTDFTLTISSLQPEDFATYYCQQGVSDITFGGGTKVEIK
B4: Ab56: anti-CD117 antibody, VH SEQ ID NO: 39, VL SEQ ID NO: 40 (antibody, V domains shown)
VH: B3 VH with S31L, I54A
VL: B3 VL
B5: Ab57: anti-CD117 antibody, VH SEQ ID NO: 49, VL SEQ ID NO: 50 (antibody, V domains shown)
VH: B3 VH with S31L, I54H, T57L
VL: B3 VL
B6: Ab55: anti-CD117 antibody, VH SEQ ID NO: 19, VL SEQ ID NO: 20 (antibody, V domains shown)
VH: B3 VH with S30R, S31I, I54D, T57V
VL: B3 VL

What was measured:
CD117 [1] = target: T1, CD117 (Homo sapiens, UniProt P10721); experiment: In vitro stem cell factor (SCF)-dependent cell proliferation assay (neutral vs antagonist); assay type: cell-based; design: endogenous in cells; host or cells: CD34+ cells dependent on SCF
From the text: Neutral antibodies can be identified using, for example, an in in vitro stem cell factor (SCF)-dependent cell proliferation assay. In an SCF dependent cell proliferation assay, a neutral CD117 antibody will not kill CD34+ cells that are dependent on SCF to divide, as a neutral antibody will not block SCF from binding to CD117 such as to inhibit CD117 activity.

CD117 [2] = target: T1, CD117; experiment: Bio-layer interferometry (BLI) binding
From the text: In certain embodiments, an anti-CD117 antibody, or antigen binding fragment thereof, has a certain dissociation rate which is particularly advantageous when used as a part of a conjugate. For example, an anti-CD117 antibody has, in certain embodiments, an off rate constant (Koff) for human CD117 and/or rhesus CD117 of 1×10^−2 to 1×10^−3, 1×10^−3 to 1×10^−4, […] or 1×10^−7 to 1×10^−8, as measured by bio-layer interferometry (BLI). In some embodiments, the antibody or antigen-binding fragment thereof binds CD117 (e.g., human CD117 and/or rhesus CD117) with a KD of about 100 nM or less, about 90 nM or less, about 80 nM or less, about 70 nM or less, about 60 nM or less, about 50 nM or less, about 40 nM or less, about 30 nM or less, about 20 nM or less, about 10 nM or less, about 8 nM or less, about 6 nM or less, about 4 nM or less, about 2 nM or less, about 1 nM or less as determined by a Bio-Layer Interferometry (BLI) assay.
Thus, in certain embodiments, an anti-CD117 antibody comprises a heavy chain comprising a CDR set (CDR1, CDR2, and CDR3) as set forth in SEQ ID Nos: 245, 246, and 247, and a light chain comprising a CDR set as set forth in SEQ ID Nos: 248, 249, and […], internalizes in cells expressing CD117, and has a koff rate of 5×10^−4 s^−1 or less as measured by BLI.

T1 sequence (P10721 26-976): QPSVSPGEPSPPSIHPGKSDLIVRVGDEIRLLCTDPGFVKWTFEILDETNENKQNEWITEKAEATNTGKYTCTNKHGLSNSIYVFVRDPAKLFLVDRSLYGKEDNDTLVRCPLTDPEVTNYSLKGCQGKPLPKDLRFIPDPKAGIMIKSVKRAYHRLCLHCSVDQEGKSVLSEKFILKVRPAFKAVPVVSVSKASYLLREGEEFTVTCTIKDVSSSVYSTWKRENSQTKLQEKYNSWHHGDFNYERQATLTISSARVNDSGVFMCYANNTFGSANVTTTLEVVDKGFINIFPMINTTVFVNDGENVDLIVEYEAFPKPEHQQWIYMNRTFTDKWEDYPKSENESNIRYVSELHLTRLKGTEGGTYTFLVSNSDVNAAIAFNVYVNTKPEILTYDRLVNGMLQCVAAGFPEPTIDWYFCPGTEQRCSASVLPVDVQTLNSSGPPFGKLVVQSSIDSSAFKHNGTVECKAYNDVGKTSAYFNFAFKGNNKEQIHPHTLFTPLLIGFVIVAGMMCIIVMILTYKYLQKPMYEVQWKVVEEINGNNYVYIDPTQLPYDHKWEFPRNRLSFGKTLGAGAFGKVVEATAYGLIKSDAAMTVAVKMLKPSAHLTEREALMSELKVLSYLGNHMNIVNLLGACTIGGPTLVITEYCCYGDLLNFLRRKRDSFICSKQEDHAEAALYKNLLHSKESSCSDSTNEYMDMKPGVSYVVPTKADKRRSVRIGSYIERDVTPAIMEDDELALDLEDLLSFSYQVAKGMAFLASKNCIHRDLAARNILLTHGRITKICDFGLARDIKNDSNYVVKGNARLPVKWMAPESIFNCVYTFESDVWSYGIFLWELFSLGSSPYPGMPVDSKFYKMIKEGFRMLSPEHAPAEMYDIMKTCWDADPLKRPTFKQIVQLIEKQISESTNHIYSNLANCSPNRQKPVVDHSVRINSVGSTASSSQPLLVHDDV

Molecule | effect on CD117 activity (neutral or antagonist antibody) (CD117 [1]) | binding characteristics over CK6 (CD117 [2])
B1 | neutral | 
B2 |  | improved binding characteristics
B3 | Antagonist | 
B4 | Antagonist | 
B5 | Antagonist | 
B6 | Antagonist | 
